Laboratory results taken from article PMC3767657.

Assays:
[1] = target: HIV-1 integrase (IN) T174I, in virus particles (HIV-1 (NL4.3-based vector)); assay: cross-linking; purified virus (50 ng p24 equivalents) in PBS/0.25% Triton X-100 treated with BS3 for 20 min at room temperature, quenched with Tris-HCl pH 7.5, reducing SDS-PAGE, anti-IN Western blot; virus produced in the presence of DMSO or 1 uM GS-B, or cell-free virus treated with GS-B
[2] = target: HIV-1 integrase (IN), wild type, in virus particles (HIV-1 (NL4.3-based vector)); assay: as above

Substance | stoichiometry N [1] | stoichiometry N [2]
HIV-1 integrase (IN) T174I, in virus particles (enzyme) | 2 | 
HIV-1 integrase (IN), wild type, in virus particles (enzyme) |  | 2
